In publication PMC2739136:

Columns and labels:
MBP-TraR F161A, P33905 = target: T1, MBP-TraR F161A, P33905; test: pull-down
T1 chain: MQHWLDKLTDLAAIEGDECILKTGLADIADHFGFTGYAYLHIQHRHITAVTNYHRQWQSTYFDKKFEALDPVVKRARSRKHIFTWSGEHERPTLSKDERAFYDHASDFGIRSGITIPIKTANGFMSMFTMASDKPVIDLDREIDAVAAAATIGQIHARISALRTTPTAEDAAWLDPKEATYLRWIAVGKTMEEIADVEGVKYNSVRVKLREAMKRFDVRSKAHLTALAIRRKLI

MBP-TraR K119A, P33905 = target: T2, MBP-TraR K119A, P33905; test: pull-down
T2 chain: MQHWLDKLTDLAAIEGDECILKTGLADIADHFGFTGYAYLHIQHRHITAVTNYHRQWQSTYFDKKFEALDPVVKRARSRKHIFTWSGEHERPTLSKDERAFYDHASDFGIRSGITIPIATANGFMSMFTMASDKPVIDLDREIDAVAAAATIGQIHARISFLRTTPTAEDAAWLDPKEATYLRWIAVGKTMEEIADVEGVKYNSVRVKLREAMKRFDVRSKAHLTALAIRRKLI

B1: native TraR (wild type) (protein)
chain: MQHWLDKLTDLAAIEGDECILKTGLADIADHFGFTGYAYLHIQHRHITAVTNYHRQWQSTYFDKKFEALDPVVKRARSRKHIFTWSGEHERPTLSKDERAFYDHASDFGIRSGITIPIKTANGFMSMFTMASDKPVIDLDREIDAVAAAATIGQIHARISFLRTTPTAEDAAWLDPKEATYLRWIAVGKTMEEIADVEGVKYNSVRVKLREAMKRFDVRSKAHLTALAIRRKLI
Question: What does the source list for B1?
Answer: heterodimer formation (% of wild type) (% of wild type) (MBP-TraR F161A, P33905): 49; heterodimer formation (% of wild type) (% of wild type) (MBP-TraR K119A, P33905): 94
